Here are results for 7 molecules from patent US20110135573A1 (DYAX, published 2011).

The target of one experiment is T1, h-MMP-9/h-TIMP-1 complex (human, UniProt P14780 107-457; P01033 24-207, limits assumed).
T1 construct: Preformed non-covalent complex flowed over the antibody surfaces; also called huTIMP-1/cat-huMMP-9; h-TIMP-1/h-MMP-9 complex
Description: SPR (Biacore 3000), antibody amine-coupled (direct capture). The method, then: (§1) Experiments were performed at 25° C. with the help of a Biacore 3000 instrument. The MMP-9 binding protein (M0166F10) and the M0237-D02 antibody were coated to a CM5 chip either via standard amine coupling or using an anti-Fc antibody surface. Then either the active, human MMP-9 catalytic domain (BIOMOL, SE-244), the human pro-MMP-9 (R&D, 911-MP), the human TIMP-1 (R&D, 970-TM) or a h-MMP-9/h-TIMP-1 complex were flowed over the antibody surfaces, and binding was recorded.
(§2) It was shown that the human MMP-9 catalytic domain binds to M0166-F10, whether this antibody is directly captured via amine coupling or captured with an anti-Fc antibody surface.

Experiment [1] deals with T2, human TIMP-1 (R&D, 970-TM) (human, UniProt P01033 24-207).
T2 construct: also called huTIMP-1; h-TIMP-1
The experiment is described as above. The protocol: as §1, §2

In experiment [2] the target is T3, human pro-MMP-9 (R&D, 911-MP) (human, UniProt P14780 20-707).
T3 construct: Pro-enzyme; also called Pro-huMMP-9
The experiment is described as above. The protocol: as §1, §2

The target in experiment [3] is T4, Human MMP-9 catalytic domain (BIOMOL, SE-244) (human, UniProt P14780 107-457, limits assumed).
T4 construct: domain: catalytic domain; also called Cat-huMMP-9; cat-huMMP-9
Description: Ki,app, enzyme inhibition assay (fluorogenic peptide substrate), small-scale sFab.

Experiment [4] deals with T5, Mouse MMP-9 (R&D, 909-MM), APMA-activated (mouse, UniProt P41245 108-730, limits assumed).
T5 construct: also called mMMP-9; mouse MMP-9 (R&D Systems #909-MM-010)
The experiment is described as follows: Ki,app, enzyme inhibition assay (fluorogenic peptide substrate), medium-scale sFab.

Experiment [5] has as its target T6, human MMP-2 (Biomol #SE-237) (human, UniProt P08253 110-452, limits assumed).
T6 construct: also called hMMP-2
Described as above.

For experiment [6], the target named is T4, Human MMP-9 catalytic domain (BIOMOL, …). The experiment is described as above.
A further experiment concerns the target T7, MMP-7 (Biomol SE-181) (UniProt P09237 95-267).
T7 sequence (looked up): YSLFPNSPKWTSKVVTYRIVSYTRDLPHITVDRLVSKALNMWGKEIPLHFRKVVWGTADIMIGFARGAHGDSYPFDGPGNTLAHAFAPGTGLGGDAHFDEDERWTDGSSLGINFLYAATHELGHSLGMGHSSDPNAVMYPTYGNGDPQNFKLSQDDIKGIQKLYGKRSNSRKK
The experiment is described as follows: cell-based or functional assay.

Experiment [7] addresses MMP-3 (R&D Systems #513-MP) (UniProt P08254 18-477, limits assumed). The experiment is described as follows: cell-based or functional assay.
Another experiment addresses MMP-12 (Biomol SE-138) (UniProt P39900 106-263, limits assumed). The experiment is described as follows: cell-based or functional assay.
The next experiment addresses TACE (R&D Systems) (UniProt P78536 215-671, limits assumed). The experiment is described as follows: cell-based or functional assay.
Another experiment has as its target MMP-14 (Biomol SE-259) (UniProt P50281 112-284, limits assumed). Description: cell-based or functional assay.
A further experiment addresses MMP-10 (Biomol SE-329) (UniProt P09238 99-265, limits assumed). Description: cell-based or functional assay.
The target of experiment [8] is MMP-16 (Calbiochem #475939) (UniProt P51512 120-292, limits assumed). Description: cell-based or functional assay.
The target in the next experiment is MMP-8 (Biomol SE-255) (UniProt P22894 100-262, limits assumed). Description: cell-based or functional assay.
Experiment [9] concerns the target MMP-15 (Calbiochem #475938) (UniProt P51511 132-304, limits assumed). The experiment is described as follows: cell-based or functional assay.
The target in a further experiment is T8, MMP-1 (Biomol SE-180) (UniProt P03956 100-269, limits assumed).
T8 sequence (looked up): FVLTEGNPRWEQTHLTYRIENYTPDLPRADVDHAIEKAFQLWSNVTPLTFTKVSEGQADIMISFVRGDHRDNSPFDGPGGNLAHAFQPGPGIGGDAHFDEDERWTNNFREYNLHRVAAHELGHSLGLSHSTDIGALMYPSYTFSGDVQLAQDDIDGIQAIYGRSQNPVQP
Description: cell-based or functional assay.

The target in a further experiment is MMP-13 (Biomol SE-246) (UniProt P45452 104-274). The experiment is described as follows: cell-based or functional assay.
The target in experiment [10] is T5, Mouse MMP-9 (R&D, 909-MM), …. The experiment is described as follows: Ki,app, enzyme inhibition assay (fluorogenic peptide substrate), IgG.
The target in experiment [11] is T6, human MMP-2 (Biomol #SE-237). The description is as above.
Experiment [12] addresses T4, Human MMP-9 catalytic domain (BIOMOL, …). Described as above.
In experiment [13] the target is T9, MMP-26 (Dyax prep #020209) (UniProt Q9NRE1 90-261, limits assumed).
T9 sequence (looked up): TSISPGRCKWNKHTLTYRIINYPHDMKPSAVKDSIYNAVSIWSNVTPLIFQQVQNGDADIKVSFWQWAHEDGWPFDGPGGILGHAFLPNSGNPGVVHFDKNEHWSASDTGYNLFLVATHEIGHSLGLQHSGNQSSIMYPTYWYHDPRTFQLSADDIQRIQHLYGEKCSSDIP
The experiment is described as follows: cell-based or functional assay.

The target in another experiment is MMP-9 (PMA-activated) (Homo sapiens (Human), UniProt P14780 107-707, Biotinylated for the phage selection; the biotin sites are not stated and the letters do not carry them.). The experiment is described as follows: apparent KD; method not stated.

Positions count from the first letter of the chain named.

Chain of TACE (R&D Systems) (P78536 215-671 limits assumed): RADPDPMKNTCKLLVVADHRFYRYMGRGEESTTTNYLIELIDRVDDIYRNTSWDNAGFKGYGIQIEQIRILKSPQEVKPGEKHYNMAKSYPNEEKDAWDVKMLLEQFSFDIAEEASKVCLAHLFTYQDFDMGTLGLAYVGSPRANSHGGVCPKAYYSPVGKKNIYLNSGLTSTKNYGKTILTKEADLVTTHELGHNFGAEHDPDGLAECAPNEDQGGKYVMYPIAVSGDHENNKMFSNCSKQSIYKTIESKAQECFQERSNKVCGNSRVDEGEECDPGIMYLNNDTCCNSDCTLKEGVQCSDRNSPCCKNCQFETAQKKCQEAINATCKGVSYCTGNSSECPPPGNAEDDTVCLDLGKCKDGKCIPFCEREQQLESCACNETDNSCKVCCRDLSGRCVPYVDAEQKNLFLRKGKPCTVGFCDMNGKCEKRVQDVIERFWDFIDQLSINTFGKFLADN
Chain of MMP-12 (Biomol SE-138) (P39900 106-263 limits assumed): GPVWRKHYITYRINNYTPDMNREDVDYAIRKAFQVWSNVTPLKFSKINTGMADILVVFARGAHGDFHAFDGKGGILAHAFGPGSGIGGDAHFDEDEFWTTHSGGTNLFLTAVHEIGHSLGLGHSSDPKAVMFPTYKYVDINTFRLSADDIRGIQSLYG
T6 sequence (P08253 110-452 limits assumed): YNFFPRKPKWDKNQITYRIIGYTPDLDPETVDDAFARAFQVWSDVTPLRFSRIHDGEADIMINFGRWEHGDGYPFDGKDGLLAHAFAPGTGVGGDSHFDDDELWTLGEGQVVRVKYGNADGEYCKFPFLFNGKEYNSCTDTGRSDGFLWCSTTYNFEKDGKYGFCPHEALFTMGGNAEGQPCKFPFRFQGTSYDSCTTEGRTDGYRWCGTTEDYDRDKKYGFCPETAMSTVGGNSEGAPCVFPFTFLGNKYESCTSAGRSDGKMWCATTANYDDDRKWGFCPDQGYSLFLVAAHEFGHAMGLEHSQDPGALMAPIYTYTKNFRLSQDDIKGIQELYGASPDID
Chain of MMP-10 (Biomol SE-329) (P09238 99-265 limits assumed): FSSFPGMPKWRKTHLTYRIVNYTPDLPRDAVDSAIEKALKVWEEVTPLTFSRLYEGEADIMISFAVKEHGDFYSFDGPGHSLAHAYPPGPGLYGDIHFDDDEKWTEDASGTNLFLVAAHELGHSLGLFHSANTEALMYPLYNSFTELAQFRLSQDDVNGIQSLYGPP
Chain of MMP-3 (R&D Systems #513-MP) (P08254 18-477 limits assumed): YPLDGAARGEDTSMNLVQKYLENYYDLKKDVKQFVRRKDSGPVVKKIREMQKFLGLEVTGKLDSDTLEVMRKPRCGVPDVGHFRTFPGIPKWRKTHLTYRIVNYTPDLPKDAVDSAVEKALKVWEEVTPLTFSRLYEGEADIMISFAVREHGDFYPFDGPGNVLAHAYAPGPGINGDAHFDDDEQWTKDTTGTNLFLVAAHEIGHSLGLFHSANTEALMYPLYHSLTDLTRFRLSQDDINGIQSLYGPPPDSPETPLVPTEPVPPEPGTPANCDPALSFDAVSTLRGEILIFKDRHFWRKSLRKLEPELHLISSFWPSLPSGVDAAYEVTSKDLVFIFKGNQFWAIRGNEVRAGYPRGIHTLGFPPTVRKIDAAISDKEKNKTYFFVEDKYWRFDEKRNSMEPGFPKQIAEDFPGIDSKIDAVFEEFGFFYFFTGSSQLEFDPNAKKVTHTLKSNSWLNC
Chain of MMP-8 (Biomol SE-255) (P22894 100-262 limits assumed): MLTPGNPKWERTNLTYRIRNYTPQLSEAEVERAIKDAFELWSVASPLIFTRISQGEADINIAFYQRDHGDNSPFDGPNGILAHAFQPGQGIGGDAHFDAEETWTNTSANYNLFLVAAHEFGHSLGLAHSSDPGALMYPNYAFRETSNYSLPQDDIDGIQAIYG
T4 sequence (P14780 107-457 limits assumed): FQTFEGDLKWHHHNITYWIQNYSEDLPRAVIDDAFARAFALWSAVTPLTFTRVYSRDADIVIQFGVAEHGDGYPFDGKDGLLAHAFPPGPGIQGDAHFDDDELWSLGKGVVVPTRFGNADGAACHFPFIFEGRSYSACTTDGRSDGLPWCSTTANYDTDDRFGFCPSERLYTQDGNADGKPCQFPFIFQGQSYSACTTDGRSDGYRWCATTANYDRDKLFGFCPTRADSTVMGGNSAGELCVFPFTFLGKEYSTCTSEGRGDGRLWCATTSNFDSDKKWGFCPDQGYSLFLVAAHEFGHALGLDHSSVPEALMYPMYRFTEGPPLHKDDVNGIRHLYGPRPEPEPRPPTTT
Chain of MMP-15 (Calbiochem #475938) (P51511 132-304 limits assumed): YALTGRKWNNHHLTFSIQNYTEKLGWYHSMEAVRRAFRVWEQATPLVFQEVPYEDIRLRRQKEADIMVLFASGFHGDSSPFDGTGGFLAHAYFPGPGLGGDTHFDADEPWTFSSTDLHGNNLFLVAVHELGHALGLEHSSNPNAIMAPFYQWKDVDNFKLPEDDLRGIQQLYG
T5 sequence (P41245 108-730 limits assumed): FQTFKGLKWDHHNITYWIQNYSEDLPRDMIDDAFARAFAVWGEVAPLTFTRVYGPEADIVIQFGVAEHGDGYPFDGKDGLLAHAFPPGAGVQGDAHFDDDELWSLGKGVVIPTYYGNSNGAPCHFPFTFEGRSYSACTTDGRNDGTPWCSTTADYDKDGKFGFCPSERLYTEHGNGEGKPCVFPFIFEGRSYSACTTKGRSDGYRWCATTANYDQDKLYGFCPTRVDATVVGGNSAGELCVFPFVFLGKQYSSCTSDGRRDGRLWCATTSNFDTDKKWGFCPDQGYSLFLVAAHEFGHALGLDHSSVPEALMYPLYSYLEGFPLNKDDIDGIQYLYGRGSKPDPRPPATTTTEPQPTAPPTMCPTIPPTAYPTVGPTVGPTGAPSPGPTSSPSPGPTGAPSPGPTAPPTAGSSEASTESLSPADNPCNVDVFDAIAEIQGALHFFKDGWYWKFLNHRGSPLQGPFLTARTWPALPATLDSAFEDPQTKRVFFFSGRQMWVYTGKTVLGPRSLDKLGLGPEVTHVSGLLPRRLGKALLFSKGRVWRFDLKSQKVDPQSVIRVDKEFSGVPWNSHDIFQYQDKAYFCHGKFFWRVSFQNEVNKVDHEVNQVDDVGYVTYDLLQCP
Chain of MMP-16 (Calbiochem #475939) (P51512 120-292 limits assumed): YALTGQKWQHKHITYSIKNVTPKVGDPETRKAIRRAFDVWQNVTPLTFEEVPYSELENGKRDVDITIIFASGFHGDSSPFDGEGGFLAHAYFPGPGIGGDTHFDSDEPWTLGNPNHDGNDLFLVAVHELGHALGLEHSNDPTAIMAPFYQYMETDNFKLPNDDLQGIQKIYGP
Chain of MMP-9 (PMA-activated) (P14780 107-707 limits assumed, form in doubt): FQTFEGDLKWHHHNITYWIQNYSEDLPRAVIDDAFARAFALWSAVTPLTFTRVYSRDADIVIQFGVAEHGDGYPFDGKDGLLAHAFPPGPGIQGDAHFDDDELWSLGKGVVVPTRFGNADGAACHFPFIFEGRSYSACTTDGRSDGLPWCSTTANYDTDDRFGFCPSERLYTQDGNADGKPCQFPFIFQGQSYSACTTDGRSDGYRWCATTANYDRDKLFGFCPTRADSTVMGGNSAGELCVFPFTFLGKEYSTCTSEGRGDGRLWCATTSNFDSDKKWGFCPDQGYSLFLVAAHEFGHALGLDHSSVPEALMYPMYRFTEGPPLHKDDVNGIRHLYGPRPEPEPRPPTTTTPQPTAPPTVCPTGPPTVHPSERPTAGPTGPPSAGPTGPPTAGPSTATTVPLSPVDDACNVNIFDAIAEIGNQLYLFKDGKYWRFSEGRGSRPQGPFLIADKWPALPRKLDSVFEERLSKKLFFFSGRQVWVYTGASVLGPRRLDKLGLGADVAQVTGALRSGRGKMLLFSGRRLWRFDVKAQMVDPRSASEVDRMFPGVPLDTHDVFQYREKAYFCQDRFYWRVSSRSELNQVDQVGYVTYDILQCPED
T1 sequence (P14780 107-457 limits assumed, chain 1 of 2): as the sequence (P14780 107-457 limits assumed) above
T1 sequence (P01033 24-207 limits assumed, chain 2 of 2): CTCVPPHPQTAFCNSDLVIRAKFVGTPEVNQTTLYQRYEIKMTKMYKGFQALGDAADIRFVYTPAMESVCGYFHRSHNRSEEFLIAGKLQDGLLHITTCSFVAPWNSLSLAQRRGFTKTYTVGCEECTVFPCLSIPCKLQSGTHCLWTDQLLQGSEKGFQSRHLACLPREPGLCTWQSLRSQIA
T2 sequence (P01033 24-207 limits assumed): as the sequence (P01033 24-207 limits assumed, chain 2 of 2) above
T3 sequence (P14780 20-707): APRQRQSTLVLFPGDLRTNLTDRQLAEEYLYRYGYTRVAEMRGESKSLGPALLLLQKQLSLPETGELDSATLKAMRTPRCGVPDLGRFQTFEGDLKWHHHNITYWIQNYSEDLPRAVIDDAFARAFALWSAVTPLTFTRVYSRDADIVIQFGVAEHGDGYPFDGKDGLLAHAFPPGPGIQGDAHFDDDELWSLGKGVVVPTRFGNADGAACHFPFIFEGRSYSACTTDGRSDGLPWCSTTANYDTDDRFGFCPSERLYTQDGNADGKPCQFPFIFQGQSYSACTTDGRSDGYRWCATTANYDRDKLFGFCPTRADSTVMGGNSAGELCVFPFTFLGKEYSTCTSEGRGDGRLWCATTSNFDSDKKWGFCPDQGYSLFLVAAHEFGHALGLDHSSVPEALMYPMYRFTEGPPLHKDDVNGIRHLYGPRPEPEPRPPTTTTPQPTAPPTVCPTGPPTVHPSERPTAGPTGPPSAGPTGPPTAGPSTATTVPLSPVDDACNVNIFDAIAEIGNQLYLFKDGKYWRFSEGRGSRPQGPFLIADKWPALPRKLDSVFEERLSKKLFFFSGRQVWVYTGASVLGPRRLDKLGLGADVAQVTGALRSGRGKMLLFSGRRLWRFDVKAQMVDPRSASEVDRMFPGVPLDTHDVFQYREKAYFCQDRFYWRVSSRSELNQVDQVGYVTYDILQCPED

B1: 539A-M0166-F10 (antibody, V domains shown)
VH: EVQLLESGGGLVQPGGSLRLSCAASGFTFSPYLMNWVRQAPGKGLEWVSSIYSSGGGTGYADSVKGRFTISRDNSKNTLYLQMNSLRAEDTAVYYCARIYHSSSGPFYGMDVWGQGTTVTVSS
VL: QSELTQPPSASAAPGQRVTISCSGSSSNIGSNTVTWYQKLPGTAPKLLIYNNYERPSGVPARFSGSKSGTSASLAISGLQSEDEADYYCATWDDSLIANYVFGSGTKVTVLG
notes: also called DL15
Take B1: the binding result (in the experiment with h-MMP-9/h-TIMP-1 complex; in experiment [1]; in experiment [2]) was “no binding” throughout.

B2: M0279-A03 (Fab, V domains shown)
VH: EVQLLESGGGLVQPGGSLRLSCAASGFTFSQYPMWWVRQAPGKGLEWVSYIVPSGGRTYYADSVKGRFTISRDNSKNTLYLQMNSLRAEDTAVYYCAKDRAYGDYVGWNGFDYWGQGTLVTVSS
VL: DIQMTQSPATLSVSPGERVTLSCKASHSISRNLAWYQQKPGQAPRLLIFGASTRATGIPARFSGSGSGTEFTLTISSLEAEDFAVYYCQQRRNWPVTFGPGTKLDFK
notes: sFab; variable domains only; also called M279-A03; M279-A03 sFab
Turning to B2, the Ki was 0.0022 µM in experiment [3], 0.024 µM in experiment [4], more than 0.43 µM in experiment [5] and 0.0016 µM in [6]. For the same molecule, the “IC50 (enzyme inhibition)” value (with MMP-7 (Biomol SE-181); in [7]; with MMP-12 (Biomol SE-138); with TACE (R&D Systems); in the experiment with MMP-14 (Biomol SE-259); with MMP-10 (Biomol SE-329)) was more than 0.5 µM each time. In addition, the “IC50 (enzyme inhibition)” value (in experiment [8]; with MMP-8 (Biomol SE-255); in experiment [9]; in the experiment with MMP-1 (Biomol SE-180); with MMP-13 (Biomol SE-246)) was more than 0.5 µM each time.

B3: X0106-A01 (antibody, V domains shown)
VH: B2 VH with Q31H, P33D, Y50V, V52Y, P53S, R57P, Y59F
VL: EIVLTQSPATLSLSPGERATLSCRASQSISSFLAWYQQKPGQAPRLLIYDASYRATGIPARFSGSGSGTDFTLTISSLEPEDFAVYYCQQRGNWPITFGQGTRLEIK
notes: Produced and tested as IgG1; germlined, optimized version of M0256-D11; also called X106-A01; X106-A01 IgG
For B3, the Ki in [10] turned out to be 0.00025 µM; in [11], 0.00034 µM; in [12] it was 0.0001 µM. The “IC50 (enzyme inhibition)” value was 0.9 µM in the experiment with MMP-7 (Biomol SE-181); more than 1 µM in experiment [7]; more than 1 µM with MMP-12 (Biomol SE-138); more than 1 µM with TACE (R&D Systems); more than 1 µM in the experiment with MMP-14 (Biomol SE-259); 0.012 µM in experiment [13]. Moreover, the “IC50 (enzyme inhibition)” value (with MMP-10 (Biomol SE-329); in experiment [8]; with MMP-8 (Biomol SE-255); in [9]; with MMP-1 (Biomol SE-180); with MMP-13 (Biomol SE-246)) was more than 1 µM in each case.

B4: M0279-B02 (Fab, V domains shown)
VH: B2 VH
VL: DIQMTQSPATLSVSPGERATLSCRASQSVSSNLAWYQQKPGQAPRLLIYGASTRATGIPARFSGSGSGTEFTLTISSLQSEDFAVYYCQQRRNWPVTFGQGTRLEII
notes: sFab; variable domains only; also called M279-B02
On to B4, for which the Ki in experiment [3] was 0.0026 µM; in experiment [4], 0.064 µM; in experiment [5] it was more than 1 µM; in experiment [6], 0.0065 µM. Also, the “IC50 (enzyme inhibition)” value (in the experiment with MMP-7 (Biomol SE-181); in [7]; with MMP-12 (Biomol SE-138); with TACE (R&D Systems); in the experiment with MMP-14 (Biomol SE-259); in experiment [13]) was more than 1 µM each time. The “IC50 (enzyme inhibition)” value (with MMP-10 (Biomol SE-329); in experiment [8]; in the experiment with MMP-8 (Biomol SE-255); in experiment [9]; with MMP-1 (Biomol SE-180); with MMP-13 (Biomol SE-246)) was more than 1 µM throughout.

B5: M0288-C08 (Fab, V domains shown)
VH: B2 VH
VL: DIQMTQSPGTLSVSPGERVTLSCRASQSVSSYLAWYQQKPGQAPRLLIYGASTRVTGIPARFSGSGSGTEFTLTISSLQSEDFAVYYCQQRSSWPITFGQGTRLEIK
notes: sFab; variable domains only; also called M288-C08
As to B5, the Ki in experiment [3] was 0.002 µM; in [4], 0.013 µM; in experiment [5], more than 1 µM; in experiment [6], 0.0018 µM.

B6: M0078-G07 (Fab, V domains shown)
VH: EVQLLESGGGLVQPGGSLRLSCAASGFTFSSYTMEWVRQAPGKGLEWVSWISPSGGYTFYADSVKGRFTISRDNSKNTLYLQMNSLRAEDTALYYCARGYSYGSIDLWGRGTLVTVSS
VL: DIQMTQSPGTLSVSPGERATLSCRASQSVSSDLAWYQHKPGQAPRLLIYGVSTKATGVPARFSGSGSGTEFTLTISSLQSEDLAVYYCQQYHNWPPLTFGGGTKVEIK
notes: variable domains only; also called Fab M0078-G07
In the case of B6, the Kd in the experiment with MMP-9 (PMA-activated) amounted to 0.0031 µM.

B7: M0076-D03 (Fab, V domains shown)
VH: EVQLLESGGGLVQPGGSLRLSCAASGFTFSLYRMNWVRQAPGKGLEWVSYIGSSGGATAYADSVKGRFTISRDNSKNTLYLQMNSLRAEDTAVYYCARGAWYLDSWGQGTLVTVSS
VL: DIQMTQSPSSLSASVGDRVTITCRASQGIRNDLDWYQQKPGTAPKRLIYSASNLQSGVPSRFSGSGSGTEFTLTISNLQPEDLATYFCLQHNSFPLTFGQGTKVEIK
notes: variable domains only
In the case of B7, the Kd with MMP-9 (PMA-activated) was 0.0059 µM.
